Experimental data reported in patent US20220332829A1 (NANJING SANHOME PHARMACEUTICAL, published 2022).

Tests used:
[1] = biological target: T1, B7-H3 on surface of tumor cell (786-0, MDA-MB-231, Raji-B7-H3 cells) (human, UniProt Q5ZPR3 29-534); test: FACS on 786-0 cells
T1 construct: whole, on cells; The making of Raji-B7-H3 cells is not described; also called B7-H3 on the surface of tumor cells; human B7-H3
T1 sequence (looked up): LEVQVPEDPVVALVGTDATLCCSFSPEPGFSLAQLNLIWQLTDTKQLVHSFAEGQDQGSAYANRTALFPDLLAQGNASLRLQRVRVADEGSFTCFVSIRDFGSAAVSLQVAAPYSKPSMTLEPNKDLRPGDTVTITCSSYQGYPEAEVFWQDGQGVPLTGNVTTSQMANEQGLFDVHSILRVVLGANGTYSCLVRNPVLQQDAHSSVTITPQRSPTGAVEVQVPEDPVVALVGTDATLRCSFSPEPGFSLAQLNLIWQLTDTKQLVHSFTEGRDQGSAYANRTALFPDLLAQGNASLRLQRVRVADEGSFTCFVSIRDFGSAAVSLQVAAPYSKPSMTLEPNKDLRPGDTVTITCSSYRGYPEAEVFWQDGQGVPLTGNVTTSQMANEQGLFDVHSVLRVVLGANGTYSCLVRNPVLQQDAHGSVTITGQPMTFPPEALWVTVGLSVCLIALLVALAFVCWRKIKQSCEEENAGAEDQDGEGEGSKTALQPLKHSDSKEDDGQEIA
Procedure: (§1) The binding activity of antibodies to B7-H3 on the surface of tumor cells was analyzed by FACS. Mean fluorescence intensity (MFI) and EC₅₀ detected by FACS indicate the binding activity of the antibody to cells. After 786-0 and MDA-MB-231 cells were digested, they were resuspended in 2% FBS-PBS solution and counted. After raji-B7-H3 cells were collected, they were resuspended in 2% FBS-PBS and counted. The above cells were plated in a cell plate with 1×10⁵ cells per well. The anti-B7-H3 antibody of the present disclosure was used as the primary antibody and added to cell plates in gradient dilution starting from 20 μg/mL with a total of 8 concentrations: 20,000 ng/mL, […], 2,000 ng/mL, 400 ng/mL, 80 ng/mL, 16 ng/mL, 3.2 ng/mL, and 0.64 ng/mL respectively. The plates were incubated at 4° C. for 1 h with hBRCA84D as the positive control antibody. PE-Anti-Human IgG (Biolegend, Cat. No. 409303, 1.25 μl/well) was used as the secondary antibody, washed, and detected for the fluorescence intensity generated by the binding of the antibody to the cell surface by a flow cytometer.

[2] = biological target: T1, B7-H3 on surface of tumor cell (786-0, …); test: FACS on MDA-MB-231 cells
Procedure: as §1

[3] = biological target: T1, B7-H3 on surface of tumor cell (786-0, …); test: FACS on Raji-B7-H3 cells
Procedure: as §1

[4] = biological target: T2, human 4Ig-B7-H3-His protein (human, UniProt Q5ZPR3 29-466); test: Biacore X100 SPR, 4Ig-B7-H3-His coupled to CM5 chip, antibody injected
T2 construct: also called human B7-H3 protein
T2 sequence: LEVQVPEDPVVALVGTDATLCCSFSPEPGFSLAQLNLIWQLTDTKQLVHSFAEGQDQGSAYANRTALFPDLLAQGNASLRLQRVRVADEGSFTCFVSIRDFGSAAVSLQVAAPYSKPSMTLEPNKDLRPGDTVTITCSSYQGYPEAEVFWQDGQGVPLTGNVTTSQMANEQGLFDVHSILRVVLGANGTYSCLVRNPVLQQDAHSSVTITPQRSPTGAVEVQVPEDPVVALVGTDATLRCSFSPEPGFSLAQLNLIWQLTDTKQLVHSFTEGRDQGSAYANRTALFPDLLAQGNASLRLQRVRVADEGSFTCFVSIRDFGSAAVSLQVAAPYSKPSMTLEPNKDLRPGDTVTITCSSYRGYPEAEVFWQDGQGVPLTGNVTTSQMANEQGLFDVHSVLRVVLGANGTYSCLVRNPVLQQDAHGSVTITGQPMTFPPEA
From the text: The humanized anti-B7-H3 antibodies prepared in Example 4 were subjected to affinity assay by Biacore. The antigen 4Ig-B7-H3-His was first coupled to the surface of a CM5 chip (GE, Cat. No. BR100012), and the active groups of the uncoupled protein were blocked with ethanolamine. After the baseline was stable, the hu39-01, hu65-13, and hBRCA84D antibodies were respectively diluted in equal proportions. The diluted antibodies of each concentration were placed on the sample injection tray of the instrument in sequence, and the program was set to inject samples respectively.

[5] = biological target: T2, human 4Ig-B7-H3-His protein; test: ELISA, plate coated with human 4Ig-B7-H3-His, detection with anti-human IgG HRP, OD450
Procedure: (§2) The binding activity of antibodies was analyzed by ELISA. 96-well ELISA plates were coated with human 4Ig-B7-H3-His protein or 2Ig-B7-H3-His protein (1 μg/well, prepared in Examples 1 and 2) and incubated overnight at 4° C. The plates were washed 3 times with 1×PBST and then blocked with 5% skim milk at 37° C. for 2 h. After washing 3 times with 1×PBST, the anti-B7-H3 antibody of the present disclosure was used as the primary antibody and added to the ELISA plates in 5-fold gradient dilution starting from 2 μg/mL with a total of 8 concentrations: 2,000 ng/mL, 400 ng/mL, 80 ng/mL, 16 ng/mL, 3.2 ng/mL, 0.64 ng/mL, 0.128 ng/mL and 0.0256 ng/mL respectively. The plates were incubated at 37° C. for 2 h with hBRCA84D as the positive control antibody. After washing 5 times with 1×PBST, Anti-Human IgG HRP (Jackson, 109-035-003, 1:5000) was used as the secondary antibody and incubated at 37° C. for 1 h. After washing 5 times with 1×PBST, color developing solution TMB was added to the plate, and microplate reader (Thermo, Multiskan FC) was used to read OD450 value after termination of the reaction. EC₅₀ was generated by GraphPad.

[6] = biological target: T3, human 2Ig-B7-H3-His protein (human, UniProt Q5ZPR3 29-463); test: ELISA, plate coated with human 2Ig-B7-H3-His, detection with anti-human IgG HRP, OD450
T3 sequence: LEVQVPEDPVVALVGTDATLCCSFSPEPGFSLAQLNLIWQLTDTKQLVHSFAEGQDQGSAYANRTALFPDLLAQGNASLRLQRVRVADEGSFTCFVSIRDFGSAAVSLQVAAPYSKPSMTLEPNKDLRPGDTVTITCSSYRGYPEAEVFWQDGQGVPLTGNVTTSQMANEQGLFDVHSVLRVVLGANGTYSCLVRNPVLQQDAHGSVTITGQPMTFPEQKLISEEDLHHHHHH
Procedure: as §2

[7] = biological target: T4, Cynomolgus B7-H3-His (Sino Biological, Cat. No. 90806-C08H) (cynomolgus monkey); test: ELISA, plate coated with cynomolgus B7-H3-His, detection with anti-human IgG HRP, OD450
T4 construct: Bought reagent; also called cynomolgus monkey B7-H3; monkey B7-H3
Procedure: The binding activity of antibodies was analyzed by protein based ELISA. Cynomolgus B7-H3-His (0.5 μg/well, Sino Biological, Cat. No. 90806-C08H) was coated on 96-well ELISA plates. The anti-B7-H3 antibodies of the present disclosure was used as the primary antibody and added to the ELISA plates in 5-fold gradient dilution starting from 2 μg/mL with a total of 8 concentrations: 2,000 ng/mL, 400 ng/mL, 80 ng/mL, 16 ng/mL, 3.2 ng/mL, 0.64 ng/mL, 0.128 ng/mL, and 0.0256 ng/mL respectively. The plates were incubated at 37° C. for 2 h with AB06.12-4P as the positive control antibody. Anti-Human IgG HRP (Jackson, 109-035-003, 1:10,000) was used as the secondary antibody. Color developing solution TMB (3,3′,5,5′-tetramethylbenzidine) was added to the plate, and microplate reader (Thermo, Multiskan FC) was used to read OD450 value after termination of the reaction. EC₅₀ was generated by GraphPad.

B1: hu51-G34K-12 (antibody, human IgG1, V domains shown)
VH: EVQLVESGGGLVKPGGSLRLSCAASGFTFSSFGMSWVRQAPGKGLEWVATINSGDNYSYSPDSVKGRFTISRDNAKNSLYLQMNSLRAEDTAVYYCARPHIFYYGSPAWFAYWGQGTLVTVSS
VL: DVVMTQSPLSLPVTLGQPASISCRSRQSLVHSNKNTYLHWFQQRPGQSPRLLIYKVSNRFSGVPDRFSGSGSGTDFTLKISRVEAEDVGVYYCSQSTHVPLTFGGGTKVEIK
notes: expressed in HEK293E; also called humanized anti-B7-H3 antibody hu51-G34K-12
- EC50 [1]: 0.12 µg/mL
- Mean fluorescence intensity (MFI) [1]: 584000
- EC50 [2]: 0.0501 µg/mL
- Mean fluorescence intensity (MFI) [2]: 156000
- EC50 [3]: 0.12 µg/mL
- Mean fluorescence intensity (MFI) [3]: 584000
- Kd [4]: 0.49 nM
- koff [4]: 0.000385 s⁻¹
- kon [4]: 785000 M⁻¹ s⁻¹
- EC50 (read off the curve) [5]: ~0.005 µg/mL
- EC50 (read off the curve) [6]: ~0.005 µg/mL
- EC50 (read off the curve) [7]: ~0.006 µg/mL
